According to US20240261333A1, “NOVEL TARGETS FOR ENHANCING ANTI-TUMOR IMMUNITY” (THE BROAD INSTITUTE, INC., priority 2021, published 2024):

T1: B3GNT2 (Homo sapiens, UniProt Q9NY97)
T1 construct: The respective ORFs of candidate genes [CD274 (NM_014143), MCL1 (NM_021960), JUNB (NM_002229), and B3GNT2 (NM_006577)] were synthesized; expressed in transfected cells; host or cells: A375 melanoma cells (lentiviral ORF overexpression)
T1 sequence (Q9NY97 1-397): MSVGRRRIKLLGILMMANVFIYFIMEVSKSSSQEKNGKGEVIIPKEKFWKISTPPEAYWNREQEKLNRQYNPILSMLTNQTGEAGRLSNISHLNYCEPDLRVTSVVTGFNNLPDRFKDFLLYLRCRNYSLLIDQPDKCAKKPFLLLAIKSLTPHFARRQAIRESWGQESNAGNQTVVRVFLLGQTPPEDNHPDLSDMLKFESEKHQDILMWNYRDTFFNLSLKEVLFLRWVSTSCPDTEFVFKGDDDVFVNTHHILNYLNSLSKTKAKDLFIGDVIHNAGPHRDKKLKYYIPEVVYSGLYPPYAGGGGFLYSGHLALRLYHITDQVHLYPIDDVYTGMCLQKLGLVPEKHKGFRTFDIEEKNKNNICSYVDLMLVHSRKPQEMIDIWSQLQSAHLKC

B1: HNRNPH1 (protein, UniProt P31943 1-449, looked up)
Heterogeneous nuclear …: MMLGTEGGEGFVVKVRGLPWSCSADEVQRFFSDCKIQNGAQGIRFIYTREGRPSGEAFVELESEDEVKLALKKDRETMGHRYVEVFKSNNVEMDWVLKHTGPNSPDTANDGFVRLRGLPFGCSKEEIVQFFSGLEIVPNGITLPVDFQGRSTGEAFVQFASQEIAEKALKKHKERIGHRYIEIFKSSRAEVRTHYDPPRKLMAMQRPGPYDRPGAGRGYNSIGRGAGFERMRRGAYGGGYGGYDDYNGYNDGYGFGSDRFGRDLNYCFSGMSDHRYGDGGSTFQSTTGHCVHMRGLPYRATENDIYNFFSPLNPVRVHIEIGPDGRVTGEADVEFATHEDAVAAMSKDKANMQHRYVELFLNSTAGASGGAYEHRYVELFLNSTAGASGGAYGSQMMGGMGLSNQSSYGGPASQQLSGGYGGGYGGQSSMSGYDQVLQENSSDFQSNIA
B2: XPOT (protein)
chain: MDEQALLGLNPNADSDFRQRALAYFEQLKISPDAWQVCAEALAQRTYSDDHVKFFCFQVLEHQVKYKYSELTTVQQQLIRETLISWLQAQMLNPQPEKTFIRNKAAQVFALLFVTEYLTKWPKFFFDILSVVDLNPRGVDLYLRILMAIDSELVDRDVVHTSEEARRNTLIKDTMREQCIPNLVESWYQILQNYQFTNSEVTCQCLEVVGAYVSWIDLSLIANDRFINMLLGHMSIEVLREEACDCLFEVVNKGMDPVDKMKLVESLCQVLQSAGFFSIDQEEDVDFLARFSKLVNGMGQSLIVSWSKLIKNGDIKNAQEALQAIETKVALMLQLLIHEDDDISSNIIGFCYDYLHILKQLTVLSDQQKANVEAIMLAVMKKLTYDEEYNFENEGEDEAMFVEYRKQLKLLLDRLAQVSPELLLASVRRVFSSTLQNWQTTRFMEVEVAIRLLYMLAEALPVSHGAHFSGDVSKASALQDMMRTLVTSGVSSYQHTSVTLEFFETVVRYEKFFTVEPQHIPCVLMAFLDHRGLRHSSAKVRSRTAYLFSRFVKSLNKQMNPFIEDILNRIQDLLELSPPENGHQSLLSSDDQLFIYETAGVLIVNSEYPAERKQALMRNLLTPLMEKFKILLEKLMLAQDEERQASLADCLNHAVGFASRTSKAFSNKQTVKQCGCSEVYLDCLQTFLPALSCPLQKDILRSGVRTFLHRMIICLEEEVLPFIPSASEHMLKDCEAKDLQEFIPLINQITAKFKIQVSPFLQQMFMPLLHAIFEVLLRPAEENDQSAALEKQMLRRSYFAFLQTVTGSGMSEVIANQGAENVERVLVTVIQGAVEYPDPIAQKTCFIILSKLVELWGGKDGPVGFADFVYKHIVPACFLAPLKQTFDLADAQTVLALSECAVTLKTIHLKRGPECVQYLQQEYLPSLQVAPEIIQEFCQALQQPDAKVFKNYLKVFFQRAKP
B3: DDX17 (protein)
chain: MPTGFVAPILCVLLPSPTREAATVASATGDSASERESAAPAAAPTAEAPPPSVVTRPEPQALPSPAIRAPLPDLYPFGTMRGGGFGDRDRDRDRGGFGARGGGGLPPKKFGNPGERLRKKKWDLSELPKFEKNFYVEHPEVARLTPYEVDELRRKKEITVRGGDVCPKPVFAFHHANFPQYVMDVLMDQHFTEPTPIQCQGFPLALSGRDMVGIAQTGSGKTLAYLLPAIVHINHQPYLERGDGPICLVLAPTRELAQQVQQVADDYGKCSRLKSTCIYGGAPKGPQIRDLERGVEICIATPGRLIDFLESGKTNLRRCTYLVLDEADRMLDMGFEPQIRKIVDQIRPDRQTLMWSATWPKEVRQLAEDFLRDYTQINVGNLELSANHNILQIVDVCMESEKDHKLIQLMEEIMAEKENKTIIFVETKRRCDDLTRRMRRDGWPAMCIHGDKSQPERDWVLNEFRSGKAPILIATDVASRGLDVEDVKFVINYDYPNSSEDYVHRIGRTARSTNKGTAYTFFTPGNLKQARELIKVLEEANQAINPKLMQLVDHRGGGGGGGGRSRYRTTSSANNPNLMYQDECDRRLRGVKDGGRRDSASYRDRSETDRAGYANGSGYGSPNSAFGAQAGQYTYGQGTYGAAAYGTSSYTAQEYGAGTYGASSTTSTGRSSQSSSQQFSGIGRSGQQPQPLMSQQFAQPPGATNMIGYMGQTAYQYPPPPPPPPPSRK
B4: P4HA2 (protein)
chain: EFFTSIGHMTDLIYAEKELVQSLKEYILVEEAKLSKIKSWANKMEALTSKSAADAEGYLAHPVNAYKLVKRLNTDWPALEDLVLQDSAAGFIANLSVQRQFFPTDEDEIGAAKALMRLQDTYRLDPGTISRGELPGTKYQAMLSVDDCFGMGRSAYNEGDYYHTVLWMEQVLKQLDAGEEATTTKSQVLDYLSYAVFQLGDLHRALELTRRLLSLDPSHERAGGNLRYFEQLLEEEREKTLTNQTEAELATPEGIYERPVDYLPERDVYESLCRGEGVKLTPRRQKRLFCRYHHGNRAPQLLIAPFKEEDEWDSPHIVRYYDVMSDEEIERIKEIAKPKLARATVRDPKTGVLTVASYRVSKSSWLEEDDDPVVARVNRRMQHITGLTVKTAELLQVANYGVGGQYEPHFDFSRNDERDTFKHLGTGNRVATFLNYMSDVEAGGATVFPDLGAAIWPKKGTAVFWYNLLRSGEGDYRTRHAACPVLVGCKWVSNKWFHERGQEFLRPCGSTEVD
B5: CPT1A (protein)
chain: AEAHQAVAFQFTVTPDGIDLRLSHEALRQIYLSGLHSWKKKFIRFKNGIITGVYPASPSSWLIVVVGVMTTMYAKIDPSLGIIAKINRTLETANCMSSQTKNVVSGVLFGTGLWVALIVTMRYSLKVLLSYHGWMFTEHGKMSRATKIWMGMVKIFSGRKPMLYSFQTSLPRLPVPAVKDTVNRYLQSVRPLMKEEDFKRMTALAQDFAVGLGPRLQWYLKLKSWWATNYVSDWWEEYIYLRGRGPLMVNSNYYAMDLLYILPTHIQAARAGNAIHAILLYRRKLDREEIKPIRLLGSTIPLCSAQWERMFNTSRIPGEETDTIQHMRDSKHIVVYHRGRYFKVWLYHDGRLLKPREMEQQMQRILDNTSEPQPGEARLAALTAGDRVPWARCRQAYFGRGKNKQSLDAVEKAAFFVTLDETEEGYRSEDPDTSMDSYAKSLLHGRCYDRWFDKSFTFVVFKNGKMGLNAEHSWADAPIVAHLWEYVMSIDSLQLGYAEDGHCKGDINPNIPYPTRLQWDIPGECQEVIETSLNTANLLANDVDFHSFPFVAFGKGIIKKCRTSPDAFVQLALQLAHYKDMGKFCLTYEASMTRLFREGRTETVRSCTTESCDFVRAMVDPAQTVEQRLKLFKLASEKHQHMYRLAMTGSGIDRHLFCLYVVSKYLAVESPFLKEVLSEPWRLSTSQTPQQQVELFDLENNPEYVSSGGGFGPVADDGYGVSYILVGENLINFHISSKFSCPETGIISQGPSSDT
B6: DDX3X (protein)
chain: SHVAVENALGLDQQFAGLDLNSSDNQSGGSTASKGRYIPPHLRNREATKGFYDKDSSGWSSSKDKDAYSSFGSRSDSRGKSSFFSDRGSGSRGRFDDRGRSDYDGIGSRGDRSGFGKFERGGNSRWCDKSDEDDWSKPLPPSERLEQELFSGGNTGINFEKYDDIPVEATGNNCPPHIESFSDVEMGEIIMGNIELTRYTRPTPVQKHAIPIIKEKRDLMACAQTGSGKTAAFLLPILSQIYSDGPGEALRAMKENGRYGRRKQYPISLVLAPTRELAVQIYEEARKFSYRSRVRPCVVYGGADIGQQIRDLERGCHLLVATPGRLVDMMERGKIGLDFCKYLVLDEADRMLDMGFEPQIRRIVEQDTMPPKGVRHTMMFSATFPKEIQMLARDFLDEYIFLAVGRVGSTSENITQKVVWVEESDKRSFLLDLLNATGKDSLTLVFVETKKGADSLEDFLYHEGYACTSIHGDRSQRDREEALHQFRSGKSPILVATAVAARGLDISNVKHVINFDLPSDIEEYVHRIGRTGRVGNLGLATSFFNERNINITKDLLDLLVEAKQEVPSWLENMAYEHHYKGSSRGRSKSSRFSGGFGARDYRQSSGASSSSFSSSRASSSRSGGGGHGSSRGFGGGGYGGFYNSDGYGGNYNSQGVDWWGN

Molecular target: T1, B3GNT2
Test: Co-IP of FLAG-tagged B3GNT2 followed by mass spectrometry
Assay type: cell-based
Set-up: C-term IgG / C-term flag: unit not given here
Conditions: Co-IP followed by mass spectrometry of B3GNT2; for C-term flag / C-term IgG: C-term tag; for C-term flag / N-term FLAG: FLAG pull-down; for C-term IgG / N-term IgG: IgG pull-down; for N-term FLAG / N-term IgG: N-term tag
In short: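 Co-purifying proteins were identified by fractionated nano-LC–MS/MS on an Orbitrap Elite, run data-dependent. Beforehand, lysates in 1% Triton X-100/HEPES buffer were incubated overnight at 4° C with anti-FLAG or […] and pulled down on Protein A/G magnetic beads for 4 h. Duplicate biological replicates.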

Molecule | C-term flag | C-term IgG | N-term FLAG | N-term IgG
B1 | 15 | 11 | 11 | 11
B2 | 2 | 0 | 2 | 0
B3 | 30 | 22 | 23 | 23
B4 | 4 | 0 | 0 | 0
B5 | 2 | 0 | 2 | 0
B6 | 23 | 15 | 18 | 19
